{
  "source": "patent US20240002500A1",
  "about": "(GUANGDONG FAPON BIOPHARMA, published 2024)",
  "binders": {"B1": {"name": "3Tigit-16 mouse monoclonal antibody (antibody, V domains shown)", "VH": "EVQLQQSGPELVKPGASVKMSCKASGFTFTDYFMDWVKQSRGASFEWIGRLNPNNGRTSYNQKFKGKATLTVDKSSSTAYMELNSLTSEDSAVYYCARGDLGRWYFDVWGAGTTVTVSS", "VL": "QIVLTQSPAIMSASPGEKVTMTCSASSSVSYMHWYQQKSGTSPKRWIYDTSKLASGVPTRFSGSGSGTSYSLTISSMEAEDAASYFCQQWSSNSLTFGAGTKLELKR", "notes": "Mouse monoclonal antibody from hybridoma"}, "B2": {"name": "3Tigit-29 mouse monoclonal antibody (antibody, V domains shown)", "VH": "EVQLQQSGPELVKPGASVKISCKASGYTFTDYNMHWVKQSLGKSLEWIGYVNSFNGNTGYSQKFKSKVTLTVDRSSRTAYMDLRSLTSEDSAVFYCARSSRGGFAYWGQGTLVTVSA", "VL": "B1 VL with T59A, G65V, S84T, F86Y", "notes": "as for B1"}, "B3": {"name": "3Tigit-12 mouse monoclonal antibody (antibody, V domains shown)", "VH": "QVQLQQSGAELVRPGTSVKMSCKAAGYTFTNYWIGWVKQRPGHGLEWIGDIYPGGGYTNYDEKFKGKATLTADTSSRTAYMQLSSLTSEDSAIYHCVNGGYGSTYGYFDVWGAGTTVTVSS", "VL": "DIVMSQSPSSLPVSVGEKVTMSCKSSQSLLFSSDQKNYLAWYQQKPGQSPKLLIYWASTRESGVPDRLTGSGSGTDFTLTISSVKAEDLAVYYCQQYHKYPFTFGGGTKLEIKR", "notes": "as for B1"}, "B4": {"name": "Tigit-5 mouse monoclonal antibody (antibody, V domains shown)", "VH": "QVQLQQPGAELVRPGASVKLSCKASGYSFTSYWMNWVKQRPGQGLEWIGMIRPSDSETRLNQMFKDKATLTVDKSSSTAYMQLSSPTSDDSAVYYCAGIHDYGHGAYWGQGTLVTVSA", "VL": "DIQMIQSPASLSVSVGETVTITCRASENIYSNLAWYQQKQGKSPQLLVYAASHLPDGVPSRFSGSGSGTQYSLKINSLQSEDFGSYYCQHFWGTPRTFGGGTKLEIKR", "notes": "as for B1"}},
  "note": "Residue numbers refer to the chain shown, from its start.",
  "data": [
    {"target": "T1, full-length cynoTIGIT on CHO cells (monkey (cyno), UniProt A0A7N9I9V4 89-312)", "T1 construct": "whole, on cells; also called CHO-cynoTIGIT; monkey TIGIT", "T1 sequence (A0A7N9I9V4 entry or part of it)": "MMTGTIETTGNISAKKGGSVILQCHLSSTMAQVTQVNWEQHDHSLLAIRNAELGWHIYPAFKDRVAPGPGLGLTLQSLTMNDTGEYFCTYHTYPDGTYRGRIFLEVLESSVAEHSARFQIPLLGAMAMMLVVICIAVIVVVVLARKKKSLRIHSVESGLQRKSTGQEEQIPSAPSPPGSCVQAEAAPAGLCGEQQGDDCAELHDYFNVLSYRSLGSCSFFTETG", "test": "FACS titration on CHO-cynoTIGIT cells, PE goat anti-mouse IgG", "protocol": "In order to verify that the anti-human TIGIT antibody binds to a monkey TIGIT, the following experiments were specifically performed. The CHO-engineered cell CHO-cynoTIGIT cells recombinantly expressing full-length […] cynoTIGIT were counted; centrifugated at 300 g for 5 min; resuspended with an FCM buffer; and cell density was adjusted to 4E+06 cell/mL for later use.\nSamples to be detected (including a positive control antibody and a mouse monoclonal antibody) were diluted with the FCM buffer to 20 μg/mL, and then the FCM buffer was used to perform 3× serial dilutions of 12 concentration points; and an isotype control antibody was diluted with the FCM buffer to 20 μg/mL. According to an experimental design, in each well, 50 μL of the antibody and 50 μL of the cell (the volume of each cell added into a 96-well V-shaped plate being 2E+05 cell/well) were respectively added in the 96-well V-shaped plate; and incubation was performed in dark on ice for 30 min. Centrifugation (300 g/5 min) was performed; supernatant was discarded; 200 μL of the FCM buffer was added for washing once; centrifugation (300 g/5 min) was performed; and the supernatant was discarded. […] Centrifugation (300 g/5 min) was performed; supernatant was discarded; 200 μL of the FCM buffer was added for washing once; centrifugation (300 g/5 min) was performed; and the supernatant was discarded. 100 μL of the 1×PBS was added for resuspending, and on-machine detection was performed.", "units": {"EC50": "nM"}, "values": [
      {"binder": "B1", "EC50": 0.758},
      {"binder": "B2", "EC50": 0.506},
      {"binder": "B3", "EC50": 0.354},
      {"binder": "B4", "EC50": 0.426}
    ]},
    {"target": "T2, full-length human TIGIT on cells (human, UniProt Q495A1 22-244)", "T2 construct": "whole, on cells; The same protein is used for CHO-hTIGIT, PBMC and NK92-hTIGIT; the cells are named under assay; also called CHO-hTIGIT; hTIGIT", "T2 sequence (looked up)": "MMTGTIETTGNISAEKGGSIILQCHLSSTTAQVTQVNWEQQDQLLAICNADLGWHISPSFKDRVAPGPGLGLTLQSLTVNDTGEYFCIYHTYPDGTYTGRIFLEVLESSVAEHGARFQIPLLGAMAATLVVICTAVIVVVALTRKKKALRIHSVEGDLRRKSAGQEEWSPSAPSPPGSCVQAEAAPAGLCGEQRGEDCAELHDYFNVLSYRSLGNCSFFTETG", "test": "FACS titration on CHO-hTIGIT cells; span of the fitted curve, unit from the y axis", "protocol": "The CHO-engineered cells CHO-hTIGIT cells recombinantly expressing full-length human TIGIT to be detected were counted, centrifuged at 300 g for 5 min, resuspended in an FCM buffer and cell density was adjusted to 4E+06 cell/mL for later use. A sample to be detected (including a positive control antibody and a mouse monoclonal antibody) was diluted with the FCM buffer to 20 μg/mL, and then the FCM buffer was used to perform 3× serial dilutions of 12 concentration points; and the isotype control antibody was diluted with the FCM buffer to 20 μg/mL. According to an experimental design, in each well, 50 μL of the antibody and 50 μL of the cell (the amount of each cell added into a 96-well V-shaped plate being 2E+05 cells/well) were respectively added in the 96-well V-shaped plate; and incubation in dark was performed on ice for 30 min. Centrifugation (300 g/5 min) was performed; supernatant was discarded; 200 μL of the FCM buffer was added for washing once; centrifugation (300 g/5 min) was performed; and the supernatant was discarded. […] Centrifugation (300 g/5 min) was performed; supernatant was discarded; 200 μL of the FCM buffer was added once for washing once; centrifugation (300 g/5 min) was performed; and the supernatant was discarded. 100 μL of the 1×PBS was added for resuspending, and on-machine detection was performed.", "units": {"Span": "MFI-PE"}, "values": [
      {"binder": "B1", "Span": 34600},
      {"binder": "B2", "Span": 30600},
      {"binder": "B4", "Span": 21000}
    ]},
    {"target": "T2, full-length human TIGIT on cells", "test": "FACS blocking: antibody on CHO-hTIGIT cells, then hPVR-hFc, PE anti-human IgG Fc; blocked ligand hPVR-hFc", "protocol": "The CHO-engineered cells CHO-hTIGIT cells recombinantly expressing full-length human TIGIT were counted, and centrifugated at 300 g for 5 min, resuspended with an FCM buffer, and cell density was adjusted to 4E+06 cell/mL for later use. […] According to an experimental design, in each well, 50 μL of the antibody and 50 μL of the cell (the volume of each cell added into a 96-well V-shaped plate being 2E+05 cell/well) were respectively added in the 96-well V-shaped plate; and incubation was performed in dark on ice for 30 min. The ligand protein was added to the 96-well V-shaped plate (in 50 μL/well); and incubation was performed in dark on ice for 30 min. Centrifugation (300 g/5 min) was performed; supernatant was discarded; 200 μL of the FCM buffer was added for washing once; centrifugation (300 g/5 min) was performed; and the supernatant was discarded. Secondary antibodies (PE anti-human IgG Fc, 1:500 dilution) were added to the 96-well V-shaped plate (in 100 μL/well); and incubation was performed in dark on ice for 30 min. Centrifugation (300 g/5 min) was performed; supernatant was discarded; 200 μL of the FCM buffer was added for washing once; centrifugation (300 g/5 min) was performed; and the supernatant was discarded. 100 μL of the 1×PBS was added for resuspending, and on-machine detection was performed.", "units": {"IC50 (read off the curve)": "nM"}, "values": [
      {"binder": "B1", "IC50 (read off the curve)": "~0.3"},
      {"binder": "B2", "IC50 (read off the curve)": "~0.3"},
      {"binder": "B4", "IC50 (read off the curve)": "~0.3"}
    ]}
  ]
}
